Measured values published in patent publication US20240016931A1 (JIANGSU HENGRUI PHARMACEUTICALS, published 2024).

Molecular target: T1, His-tagged human TSLP antigen (huTSLP-his) (human)
T1 construct: Secreted from HEK293E and purified on nickel; whole entry named; also called Human TSLP-his
Assay: ELISA on human TSLP

binding result: binds
B1: hu3-11 (antibody, human IgG1, kappa, V domains shown)
VH: EVQLVQSGAEVKKPGASVKVSCKASGYTFTDDYMNWVRQAPGQRLEWMGIISPYNGGTSYNQKFKGRVTLTVDKSASTAYMELSSLRSEDTAVYYCAREDYDYDGYAMDYWGQGTTVTVSS
VL: EIVLTQSPATLSLSPGERATLSCRASSSVSYMHWYQQKPGQAPRPWIYATSNLASGVPARFSGSGSGTSYTLTISRLEPEDFAVYYCQQWSSDRTFGGGTKVEIKR
notes: IgG1-YTE, kappa; also called hu3VH2-H110Y + hu3VL4-N93D
